Source: paper PMC13147308

Key:
[1] = molecular target: Staphylococcus aureus Cas9, full length, His-tagged (UniProt J7RUA5); test: SEC co-migration followed by SDS/PAGE band quantification; settings: fraction eluted around 12 mL in SEC; n = 3; parent: est. 100; read off a plot
[2] = molecular target: SauCas9 WED-PI domain construct, His-tagged (Staphylococcus aureus); test: ITC; AcrIIA13b mutants E31K and E39K with SauCas9 and WED-PI (Fig. S7); buffer not told for this experiment
[3] = molecular target: SauCas9 PI (PAM-interacting) domain, His-tagged (Staphylococcus aureus); test: ITC; PBS pH 7.4, 20 °C; AcrIIA13b (500 μM) injected into the target protein (50 μM) in the cell, 25 injections; single-site model
[4] = molecular target: Staphylococcus aureus Cas9, full length, His-tagged (Staphylococcus aureus) (UniProt J7RUA5); test: as above
[5] = molecular target: Staphylococcus haemolyticus AcrIIA13b, wild type, with C-terminal 6xHis tag (Staphylococcus haemolyticus); test: SEC-MALS; Superdex 200 Increase 10/300 GL, 20 mM Tris/HCl pH 8.0, 150 mM NaCl, 20 °C, 0.5 mL/min; SEC profiles and MALS of wild type and mutants; monomer and dimer peaks coexist

Substance: Staphylococcus haemolyticus AcrIIA13b, wild type, with C-terminal 6xHis tag E94W
- percent of parent [1]: 87%

Substance: Staphylococcus haemolyticus AcrIIA13b, wild type, with C-terminal 6xHis tag E21K
- percent of parent [1]: 75%

Substance: Staphylococcus haemolyticus AcrIIA13b, wild type, with C-terminal 6xHis tag E39K
- percent of parent [1]: 35%

Substance: Staphylococcus haemolyticus AcrIIA13b, wild type, with C-terminal 6xHis tag E31K
- percent of parent [1]: 13%

Substance: Staphylococcus haemolyticus AcrIIA13b, wild type, with C-terminal 6xHis tag E89W
- percent of parent [1]: 84%

Substance: Staphylococcus haemolyticus AcrIIA13b, wild type, with C-terminal 6xHis tag Q87W
- percent of parent [1]: 75%

Substance: AcrIIA13b E39K mutant (natural protein)
- Kd [2]: 1.31 µM

Substance: Staphylococcus haemolyticus AcrIIA13b, wild type, with C-terminal 6xHis tag Q25W
- percent of parent [1]: 46%

Substance: Staphylococcus haemolyticus AcrIIA13b, wild type, with C-terminal 6xHis tag (natural protein)
- Kd [3]: 0.97 µM
- Kd [4]: 4.47 µM
- stoichiometry N [5]: 2
